Results on 1 molecule are retold here after patent publication US20200079855A1 (Pfizer, published 2020).

Where only a bound is given, the exact number is not on record here.

Assay [1] addresses recombinant human αvβ8 integrin (human) (UniProt P06756). The assay is described as follows: SPR (Biacore), additional experiments. (In general: SPR reads the build-up and loss of mass on a sensor chip optically.)
Assay [2] concerns the target T1, recombinant rat αvβ8 integrin (rat, UniProt F1LZX9 31-987; A0A0G2JVU1 43-682).
T1 construct: Recombinant protein immobilised on the Biacore chip
Briefly: SPR (Biacore T200), Fab over biotinylated recombinant αvβ8 on streptavidin chip, n>=3. The protocol: (§1) More specifically, recombinant αvβ8 integrin (e.g., R&D Systems) was biotin labeled via primary amines and immobilized on a Sensor Chip SA using a Biacore™ T200 instrument (GE Healthcare Life Sciences). Fab binding experiments were performed at 25° C. using a 30 μl/min flow rate in 0.01 M HEPES pH 7.4, 0.15 M NaCl, 1-2 mM MgCl₂, and 0.005% v/v surfactant P20 (HBS-P) buffer. Association was monitored for 5-10 minutes and dissociation for a further 15-20 minutes for each Fab concentration. After each injection, the chip surface was regenerated with IgG elution buffer (Thermo Fisher Scientific). All data was analyzed using the Biacore™ T200 Evaluation software. Data was dual background subtracted using the adjacent flow cell coupled with streptavidin without captured integrin, and buffer only injections. Kinetic constants for at least three experiments were obtained and reported as the mean.
(§2) To evaluate the monomeric KD of the Fab ADWA11 2.4, also referred to herein as ADWA-11 VH05-2/VK01(2.4) and ADWA11 5-2 2.4, and the parental mouse IgG, recombinant human, cynomolgus, mouse, and rat αvβ8 was immobilized on a Biacore chip and the ka and kd of the Fabs were determined as generally described herein (Table 6).

Assay [3] concerns the target T2, recombinant mouse αvβ8 integrin (mouse, UniProt P43406 31-988; Q0VBD0 22-681, limits assumed).
T2 construct: Recombinant protein immobilised on the Biacore chip
The assay is described as above. As for the experimental part:
as §1, §2

For assay [4], the target named is T3, recombinant cynomolgus monkey αvβ8 integrin (cynomolgus monkey, limits assumed).
T3 construct: Recombinant protein immobilised on the Biacore chip; also called cyno αvβ8; cynomolgus αvβ8
T3 chain 1: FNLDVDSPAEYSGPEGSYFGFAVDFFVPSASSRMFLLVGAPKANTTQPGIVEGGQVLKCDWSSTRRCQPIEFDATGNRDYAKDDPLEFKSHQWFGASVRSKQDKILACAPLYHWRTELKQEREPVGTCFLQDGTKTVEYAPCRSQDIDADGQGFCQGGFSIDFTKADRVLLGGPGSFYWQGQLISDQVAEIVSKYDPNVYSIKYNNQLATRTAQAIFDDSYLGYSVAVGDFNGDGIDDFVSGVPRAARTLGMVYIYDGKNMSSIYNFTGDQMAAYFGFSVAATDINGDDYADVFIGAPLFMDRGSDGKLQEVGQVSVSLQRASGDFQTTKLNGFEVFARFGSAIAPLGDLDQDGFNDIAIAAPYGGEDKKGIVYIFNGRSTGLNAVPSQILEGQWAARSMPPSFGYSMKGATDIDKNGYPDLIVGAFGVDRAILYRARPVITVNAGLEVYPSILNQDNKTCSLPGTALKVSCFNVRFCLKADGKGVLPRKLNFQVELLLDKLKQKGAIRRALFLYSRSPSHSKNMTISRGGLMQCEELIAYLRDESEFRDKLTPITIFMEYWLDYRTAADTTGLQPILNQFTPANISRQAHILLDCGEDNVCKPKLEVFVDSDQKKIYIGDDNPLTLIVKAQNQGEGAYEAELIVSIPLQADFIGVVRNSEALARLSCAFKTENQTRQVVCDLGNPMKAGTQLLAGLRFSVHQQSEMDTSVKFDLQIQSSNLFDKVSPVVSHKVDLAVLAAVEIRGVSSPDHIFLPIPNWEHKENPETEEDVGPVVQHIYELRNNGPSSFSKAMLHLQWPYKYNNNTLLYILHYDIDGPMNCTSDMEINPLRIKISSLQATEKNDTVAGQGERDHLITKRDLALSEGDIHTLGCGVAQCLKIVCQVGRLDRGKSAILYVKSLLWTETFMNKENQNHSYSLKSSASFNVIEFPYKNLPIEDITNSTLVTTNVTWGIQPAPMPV
T3 chain 2: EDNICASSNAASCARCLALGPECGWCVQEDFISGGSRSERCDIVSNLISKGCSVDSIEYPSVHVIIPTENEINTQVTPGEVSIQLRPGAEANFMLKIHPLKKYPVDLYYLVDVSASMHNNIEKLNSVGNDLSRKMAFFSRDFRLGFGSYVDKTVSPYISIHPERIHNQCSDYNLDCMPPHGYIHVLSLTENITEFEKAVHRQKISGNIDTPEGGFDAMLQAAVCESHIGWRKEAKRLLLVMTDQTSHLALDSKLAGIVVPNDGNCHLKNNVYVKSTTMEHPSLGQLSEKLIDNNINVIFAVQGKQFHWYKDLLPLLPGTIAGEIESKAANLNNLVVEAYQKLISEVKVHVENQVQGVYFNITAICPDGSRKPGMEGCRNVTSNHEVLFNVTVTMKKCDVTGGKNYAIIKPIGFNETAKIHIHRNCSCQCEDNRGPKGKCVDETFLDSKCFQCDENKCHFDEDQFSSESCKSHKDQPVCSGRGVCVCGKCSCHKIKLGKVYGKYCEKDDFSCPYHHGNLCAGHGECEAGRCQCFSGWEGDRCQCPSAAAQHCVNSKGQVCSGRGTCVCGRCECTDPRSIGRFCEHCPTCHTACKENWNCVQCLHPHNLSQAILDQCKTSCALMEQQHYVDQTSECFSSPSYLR
The assay is described as above. As for the experimental part:
as §1, §2

Assay [5] addresses recombinant human αvβ8 integrin (human) (UniProt P06756). Described as above.
In assay [6] the target is human αvβ8 integrin on U251 cells (human, UniProt P06756 31-1048). The assay is described as follows: flow cytometry, Fab binding to fixed U251 cells (MFI APC-A); EC50 unit inferred, axis Log10 [Ab] (nM). On the technique in general: A flow cytometer gives signals particle by particle.
The target of assay [7] is T2, recombinant mouse αvβ8 integrin. Briefly: SPR (Biacore), additional experiments. As for the experimental part: as §1
Assay [8] addresses T3, recombinant cynomolgus monkey αvβ8 …. Briefly: SPR (Biacore), additional experiments. The protocol:
as §1

The target in assay [9] is T4, recombinant human αvβ6 integrin (human, UniProt P06756 31-992; P18564 22-707).
T4 construct: Used in ELISA and immobilised on the Biacore chip; construct not described; also called hαvβ6; AVB6
Briefly: SPR (Biacore).

Assay [10] has as its target T5, recombinant human αvβ3 integrin (human, UniProt P06756 31-992; P05106 27-718).
T5 construct: Used in ELISA and immobilised on the Biacore chip; construct not described; also called hαvβ3; AVB3
The assay is described as follows: SPR (Biacore).

T2 sequence (P43406 31-988 limits assumed, chain 1 of 2): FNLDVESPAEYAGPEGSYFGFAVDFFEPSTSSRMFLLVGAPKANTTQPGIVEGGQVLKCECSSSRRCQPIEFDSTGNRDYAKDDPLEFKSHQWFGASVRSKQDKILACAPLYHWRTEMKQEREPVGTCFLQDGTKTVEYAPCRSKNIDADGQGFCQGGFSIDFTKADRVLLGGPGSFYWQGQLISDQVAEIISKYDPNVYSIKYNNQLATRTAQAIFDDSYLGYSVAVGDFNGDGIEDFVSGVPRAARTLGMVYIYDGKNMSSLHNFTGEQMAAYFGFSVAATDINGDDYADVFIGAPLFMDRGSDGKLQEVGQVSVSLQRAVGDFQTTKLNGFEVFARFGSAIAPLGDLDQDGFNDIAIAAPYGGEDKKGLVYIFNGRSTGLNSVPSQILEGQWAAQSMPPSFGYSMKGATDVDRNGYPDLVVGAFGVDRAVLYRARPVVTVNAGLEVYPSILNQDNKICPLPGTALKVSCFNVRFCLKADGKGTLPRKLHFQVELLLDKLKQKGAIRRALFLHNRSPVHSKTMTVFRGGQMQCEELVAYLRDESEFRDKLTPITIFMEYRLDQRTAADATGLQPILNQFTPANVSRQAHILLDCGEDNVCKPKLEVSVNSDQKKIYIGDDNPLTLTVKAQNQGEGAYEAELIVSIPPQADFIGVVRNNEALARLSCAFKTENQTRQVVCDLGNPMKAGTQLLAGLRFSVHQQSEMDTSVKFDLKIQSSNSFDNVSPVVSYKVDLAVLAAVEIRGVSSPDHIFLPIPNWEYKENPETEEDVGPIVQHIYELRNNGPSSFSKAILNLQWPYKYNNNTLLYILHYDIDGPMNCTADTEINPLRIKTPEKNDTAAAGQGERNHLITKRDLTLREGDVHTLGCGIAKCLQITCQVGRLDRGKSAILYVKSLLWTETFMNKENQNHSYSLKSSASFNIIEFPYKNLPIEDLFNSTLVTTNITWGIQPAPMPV
T2 sequence (Q0VBD0 22-681 limits assumed, chain 2 of 2): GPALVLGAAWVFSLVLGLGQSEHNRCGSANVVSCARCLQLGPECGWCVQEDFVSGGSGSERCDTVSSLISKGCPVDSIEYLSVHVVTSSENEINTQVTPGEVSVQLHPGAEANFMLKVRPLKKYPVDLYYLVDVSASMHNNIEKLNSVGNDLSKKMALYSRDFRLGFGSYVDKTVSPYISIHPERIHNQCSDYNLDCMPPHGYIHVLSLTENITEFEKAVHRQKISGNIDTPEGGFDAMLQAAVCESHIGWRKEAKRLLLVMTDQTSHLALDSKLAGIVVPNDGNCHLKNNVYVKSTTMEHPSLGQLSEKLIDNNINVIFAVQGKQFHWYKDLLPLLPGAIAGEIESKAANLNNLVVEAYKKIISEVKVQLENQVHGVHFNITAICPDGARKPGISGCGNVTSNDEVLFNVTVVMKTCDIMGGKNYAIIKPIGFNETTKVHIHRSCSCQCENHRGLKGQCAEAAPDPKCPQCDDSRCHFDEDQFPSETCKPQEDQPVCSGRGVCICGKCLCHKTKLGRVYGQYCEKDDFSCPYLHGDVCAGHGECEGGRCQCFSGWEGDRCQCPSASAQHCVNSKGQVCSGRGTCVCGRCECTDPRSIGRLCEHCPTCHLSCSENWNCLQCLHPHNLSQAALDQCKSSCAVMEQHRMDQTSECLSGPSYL
T5 sequence (P05106 27-718 limits assumed, one chain of several): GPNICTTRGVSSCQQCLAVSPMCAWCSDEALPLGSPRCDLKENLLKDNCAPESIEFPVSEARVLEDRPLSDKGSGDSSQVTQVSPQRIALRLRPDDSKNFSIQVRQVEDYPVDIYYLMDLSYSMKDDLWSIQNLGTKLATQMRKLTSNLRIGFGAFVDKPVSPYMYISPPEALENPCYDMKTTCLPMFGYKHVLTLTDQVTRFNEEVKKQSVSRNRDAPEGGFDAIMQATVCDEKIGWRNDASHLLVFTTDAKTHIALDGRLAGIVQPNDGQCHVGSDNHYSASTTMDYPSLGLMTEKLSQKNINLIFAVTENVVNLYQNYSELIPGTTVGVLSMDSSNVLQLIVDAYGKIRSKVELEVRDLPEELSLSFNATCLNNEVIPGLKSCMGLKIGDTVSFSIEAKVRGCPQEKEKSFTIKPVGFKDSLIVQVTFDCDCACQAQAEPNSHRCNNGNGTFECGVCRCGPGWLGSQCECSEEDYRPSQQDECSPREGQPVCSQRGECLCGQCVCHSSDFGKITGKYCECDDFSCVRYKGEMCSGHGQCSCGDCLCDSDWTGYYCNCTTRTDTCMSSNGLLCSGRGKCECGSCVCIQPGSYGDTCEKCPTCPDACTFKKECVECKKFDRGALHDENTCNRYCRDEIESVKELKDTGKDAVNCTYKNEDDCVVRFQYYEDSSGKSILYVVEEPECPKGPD
T4 sequence (P18564 22-707 limits assumed, one chain of several): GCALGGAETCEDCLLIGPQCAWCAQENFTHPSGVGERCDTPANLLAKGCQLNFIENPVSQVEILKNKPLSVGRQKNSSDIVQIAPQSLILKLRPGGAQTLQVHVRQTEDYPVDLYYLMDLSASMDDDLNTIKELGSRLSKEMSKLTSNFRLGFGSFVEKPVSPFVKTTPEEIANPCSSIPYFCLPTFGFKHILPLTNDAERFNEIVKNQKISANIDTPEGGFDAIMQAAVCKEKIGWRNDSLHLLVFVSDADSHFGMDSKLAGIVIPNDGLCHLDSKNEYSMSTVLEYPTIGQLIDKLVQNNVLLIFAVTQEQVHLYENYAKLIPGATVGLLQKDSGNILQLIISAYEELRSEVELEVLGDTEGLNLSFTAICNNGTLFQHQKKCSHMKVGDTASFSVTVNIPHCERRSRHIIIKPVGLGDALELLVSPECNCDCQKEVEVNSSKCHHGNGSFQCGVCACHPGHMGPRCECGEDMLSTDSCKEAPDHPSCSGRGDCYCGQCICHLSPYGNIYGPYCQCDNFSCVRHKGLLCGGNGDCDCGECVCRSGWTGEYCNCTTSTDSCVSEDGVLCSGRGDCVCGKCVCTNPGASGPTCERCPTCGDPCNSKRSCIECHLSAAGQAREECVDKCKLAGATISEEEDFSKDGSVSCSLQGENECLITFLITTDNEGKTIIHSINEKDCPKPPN

B1: ADWA11 2.4 Fab (Fab, V domains shown)
VH: EVQLVESGGGLVQPGGSLRLSCAASGFNIKDYYMNWVRQAPGKGLEWVGWIDPDQGNTIYEPKFQGRFTISADTSKNSAYLQMNSLRAEDTAVYYCARRLLMDYWGQGTLVTVSS
VL: DIQMTQSPSSLSASVGDRVTITCRSTKSLSHFNGNTYLFWYQQKPGKAPKRLIYYMSSLASGVPSRFSGSGSGTDFTLTISSLQPEDFATYYCQQSLEYPFTFGGGTKVEIK
notes: Fab; also called ADWA11 5-2 2.4; ADWA11_5-2 2.4 Fab
Take B1: the Kd (as a rule, the concentration at which binding is half-saturated) in assay [1] is less than 0.1 nM; in [2], no more than 0.2 nM; in assay [3], no more than 0.2 nM; in assay [4], no more than 0.2 nM; in assay [5] it was less than 0.2 nM; in [7] it was 0.0708 nM. Further, in [8], the dissociation constant (Kd) was less than 0.1 nM. Further, the dissociation rate constant (koff) (usually the rate constant with which the complex falls apart) in assay [2] is no more than 2e-05 s⁻¹; in [3], 1.82e-05 s⁻¹; in assay [4], no more than 2e-05 s⁻¹; in assay [5] it was less than 3e-05 s⁻¹. Further, the association rate constant (kon) (usually the second-order rate constant of association) was found to be 341000 M⁻¹ s⁻¹ in assay [2], 257000 M⁻¹ s⁻¹ in [3], 172000 M⁻¹ s⁻¹ in [4] and 161000 M⁻¹ s⁻¹ in [5]. The half-maximal effective concentration (EC50) (as a rule, the concentration that produces a half-maximal response) in assay [6] is 0.205 nM. Besides, the binding result in assay [9] and in [10] was “no binding” each time.
